# Biological target: GH42 β-galactosidase Bbreβgal-III from Bifidobacterium breve DSM 20213 (Bifidobacterium breve DSM 20213)
# Assay: SEC-MALS; OMNISEC multidetector GPC/SEC (RI, UV/Vis, RALS 90° + LALS 7°); 22 μL injected at 13.4 mg/mL, 0.5 mL/min, 20 °C, DPBS without Ca2+ and Mg2+; dn/dc 0.185 mL/g; oligomeric state of the enzyme
substance,measurement,value
GH42 β-galactosidase Bbreβgal-III from Bifidobacterium breve DSM 20213 (enzyme),stoichiometry N,3
